Assay results from the supplement of paper PMC7125110.
± gives the standard error. For some of these results: Variants at the floor of the assay were thinned out.

B1: glmS ribozyme (parent)
chain: AUAAAAGCGCCAGAACUACAGAAAUGUAGUUGACGAGGAGGAGGUUUAUCGAAUUUUCGGCGGAUGCCUCCAAA

How the values were obtained:
Settings in all cases: with glucosamine-6-phosphate
[1] = variants of: B1; assay: kcat; higher = faster cleavage; RNA array
In short: (§1)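 Barcoded ribozyme variants, transcribed in situ by E. coli RNA polymerase on sequenced MiSeq chips, were followed via a hybridised Cy3 probe at 37 °C. Glucosamine-6-phosphate ranged from 40 μM to 10 mM in HEPES/KCl/Mg(OAc)2 buffer. kobs came from decay fits to per-tile medians, and kcat and KM from weighted Michaelis–Menten fits.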

[2] = variants of: B1; assay: self-cleavage kobs at 160 uM GlcN6P; higher = faster cleavage; RNA array
In short: as §1

[3] = variants of: B1; assay: self-cleavage kobs at 2500 uM GlcN6P; higher = faster cleavage; RNA array
In short: as §1

[4] = variants of: B1; assay: self-cleavage kobs at 10000 uM GlcN6P; higher = faster cleavage; RNA array
In short: as §1

[5] = variants of: B1; assay: self-cleavage kobs at 640 uM GlcN6P; higher = faster cleavage; RNA array
In short: as §1

[6] = variants of: B1; assay: KM; higher = weaker cofactor use; RNA array
In short: as §1

[7] = variants of: B1; assay: self-cleavage kobs at 40 uM GlcN6P; higher = faster cleavage; RNA array
In short: as §1

Row | Variant | kcat [1] | self-cleavage kobs at 160 uM GlcN6P [2] | self-cleavage kobs at 2500 uM GlcN6P [3] | self-cleavage kobs at 10000 uM GlcN6P [4] | self-cleavage kobs at 640 uM GlcN6P [5] | KM [6] | self-cleavage kobs at 40 uM GlcN6P [7]
1 | A48U U65G C70U | 0.00017 ± 4.1e-05 s⁻¹ | < 1e-05 s⁻¹ | 0.000122 ± 2.8e-05 s⁻¹ | 0.000132 ± 3e-05 s⁻¹ |  |  | 
2 | U49A C50G C71U | 1.88e-05 ± 4.4e-06 s⁻¹ |  |  |  |  |  | 
3 | U47C C50G | < 1e-05 s⁻¹ |  |  |  | < 1e-05 s⁻¹ |  | 
4 | U47C U55G | 0.0038 ± 0.00044 s⁻¹ | 0.000341 ± 4.2e-05 s⁻¹ | 0.00161 ± 0.00035 s⁻¹ | 0.00347 ± 0.00028 s⁻¹ | 0.0011 ± 0.00014 s⁻¹ | 1640 ± 260 µM | 9.2e-05 ± 7.2e-06 s⁻¹
5 | U47C U57C | 6.99e-05 ± 7.5e-06 s⁻¹ |  | 5.62e-05 ± 1.1e-05 s⁻¹ | 6.24e-05 ± 9.4e-06 s⁻¹ |  |  | 
6 | U49A U55A | 3.61e-05 ± 1.5e-06 s⁻¹ |  |  | 2.26e-05 ± 9.3e-06 s⁻¹ |  | 5970 ± 610 µM | 
7 | U49A U55G | 1.38e-05 ± 6.5e-06 s⁻¹ |  |  |  |  |  | 
8 | U49G C68G | 3.3e-05 ± 5.3e-06 s⁻¹ |  | 3.47e-05 ± 1.3e-05 s⁻¹ |  |  |  | 
9 | A48C G66A | 0.000159 ± 2.8e-05 s⁻¹ | < 1e-05 s⁻¹ | 8.27e-05 ± 1.8e-05 s⁻¹ | 0.000121 ± 1.4e-05 s⁻¹ |  |  | 
10 | U47G U54G | 0.0073 ± 0.0022 s⁻¹ | 0.000915 ± 0.00023 s⁻¹ | 0.0063 ± 0.0018 s⁻¹ | 0.00685 ± 0.0015 s⁻¹ | 0.00367 ± 0.00086 s⁻¹ | 724 ± 320 µM | 0.00053 ± 8.3e-05 s⁻¹
11 | U47G U54A | 0.00987 ± 0.0039 s⁻¹ |  | 0.00522 ± 0.0019 s⁻¹ | 0.00946 ± 0.0015 s⁻¹ | 0.00157 ± 0.00052 s⁻¹ |  | 0.000306 ± 4.7e-05 s⁻¹
12 | U49A U69A | 5.14e-05 ± 1.9e-05 s⁻¹ |  |  |  |  |  | 
13 | A48U A53U | 0.000308 ± 4.1e-05 s⁻¹ |  | 0.000161 ± 2e-05 s⁻¹ | 0.000265 ± 2.8e-05 s⁻¹ | 0.000104 ± 3.1e-05 s⁻¹ | 1960 ± 750 µM | 
14 | U49G U65G | 0.0002 ± 2.3e-05 s⁻¹ |  | 6.08e-05 ± 1.7e-05 s⁻¹ | 0.000124 ± 1.8e-05 s⁻¹ |  | 6050 ± 1500 µM | 
15 | U49G U65A | 2.22e-05 ± 4.5e-06 s⁻¹ | < 1e-05 s⁻¹ |  |  |  |  | 
16 | C50U C71G | 3.46e-05 ± 1.4e-05 s⁻¹ |  |  |  | 4.43e-05 ± 1e-05 s⁻¹ |  | 
17 | C50G U69G | 0.000141 ± 7.4e-06 s⁻¹ | 0.000165 ± 3e-05 s⁻¹ | 0.000126 ± 2e-05 s⁻¹ | 0.000141 ± 1.5e-05 s⁻¹ | 0.000151 ± 2.4e-05 s⁻¹ |  | 0.000135 ± 1.6e-05 s⁻¹
18 | C50A C68U | 1.77e-05 ± 3.7e-06 s⁻¹ |  |  |  |  |  | 

Row | Variant | kcat [1] | self-cleavage kobs at 160 uM GlcN6P [2] | self-cleavage kobs at 2500 uM GlcN6P [3] | self-cleavage kobs at 10000 uM GlcN6P [4] | self-cleavage kobs at 640 uM GlcN6P [5] | KM [6] | self-cleavage kobs at 40 uM GlcN6P [7]
19 | C50A C68G | 5.05e-05 ± 1.7e-05 s⁻¹ | 6.35e-05 ± 1.2e-05 s⁻¹ | 5.89e-05 ± 1e-05 s⁻¹ |  | 8.11e-05 ± 1.6e-05 s⁻¹ |  | 2.54e-05 ± 1e-05 s⁻¹
20 | C50A C68A | 3.68e-05 ± 1.1e-05 s⁻¹ | 3.75e-05 ± 1.4e-05 s⁻¹ | 4.65e-05 ± 1.7e-05 s⁻¹ |  |  |  | 
21 | U47C U54A | 0.00447 ± 0.00014 s⁻¹ | 0.00038 ± 7.2e-05 s⁻¹ | 0.00275 ± 0.00072 s⁻¹ | 0.00384 ± 0.00049 s⁻¹ | 0.00127 ± 0.00023 s⁻¹ | 1630 ± 77 µM | 0.000112 ± 1.8e-05 s⁻¹
22 | U47C A52G | 0.000596 ± 8.2e-05 s⁻¹ | 3.5e-05 ± 1.7e-05 s⁻¹ | 0.000226 ± 4.3e-05 s⁻¹ | 0.000465 ± 8.9e-05 s⁻¹ | 9.21e-05 ± 1.5e-05 s⁻¹ | 3550 ± 750 µM | 
23 | U47G G59U | 2.47e-05 ± 4.4e-06 s⁻¹ |  | 3.31e-05 ± 1.7e-05 s⁻¹ | 2.13e-05 ± 1e-05 s⁻¹ |  |  | 
24 | C50U C70U | 4.57e-05 ± 5.9e-07 s⁻¹ |  | 4.25e-05 ± 8.3e-06 s⁻¹ | 4.51e-05 ± 7.2e-06 s⁻¹ | 3.85e-05 ± 1.4e-05 s⁻¹ | 154 ± 18 µM | 
25 | U46C U56A | 0.00121 ± 0.00013 s⁻¹ | 0.000117 ± 1.4e-05 s⁻¹ | 0.000915 ± 0.00015 s⁻¹ | 0.00098 ± 0.00014 s⁻¹ | 0.000406 ± 0.00011 s⁻¹ | 1470 ± 230 µM | 2.85e-05 ± 1e-05 s⁻¹
26 | C50A C61U | < 1e-05 s⁻¹ |  |  |  | < 1e-05 s⁻¹ |  | 
27 | U47C A48U | 0.000264 ± 3.4e-05 s⁻¹ |  | 0.000174 ± 3.2e-05 s⁻¹ |  | 9.41e-05 ± 2.5e-05 s⁻¹ | 1270 ± 340 µM | 
28 | A48U A52G | 1.32e-05 ± 2.9e-06 s⁻¹ |  |  |  |  |  | 
29 | U47A C67G | 0.000644 ± 7e-05 s⁻¹ | 5.63e-05 ± 9.9e-06 s⁻¹ | 0.000379 ± 5.1e-05 s⁻¹ | 0.000534 ± 6.4e-05 s⁻¹ | 0.000147 ± 1.3e-05 s⁻¹ | 2020 ± 350 µM | 
30 | U47A C67U | 0.00772 ± 0.0031 s⁻¹ | 0.000428 ± 7.1e-05 s⁻¹ | 0.00497 ± 0.0016 s⁻¹ | 0.00638 ± 0.00092 s⁻¹ | 0.003 ± 0.00062 s⁻¹ |  | 0.00025 ± 3.1e-05 s⁻¹
31 | U49G A53C | 0.000546 ± 0.00023 s⁻¹ |  | 0.000369 ± 6.4e-05 s⁻¹ | 0.000368 ± 8.5e-05 s⁻¹ | 7.82e-05 ± 2.4e-05 s⁻¹ |  | 
32 | U49G A53U | 0.00103 ± 0.00011 s⁻¹ | 2.84e-05 ± 8.8e-06 s⁻¹ | 0.000364 ± 5.6e-05 s⁻¹ | 0.000709 ± 8.3e-05 s⁻¹ | 0.00014 ± 1.9e-05 s⁻¹ | 4490 ± 760 µM | 
33 | U46C U55G | 0.00362 ± 0.00063 s⁻¹ | 0.000255 ± 5.8e-05 s⁻¹ | 0.00259 ± 0.00049 s⁻¹ | 0.00271 ± 0.00058 s⁻¹ | 0.00107 ± 0.00023 s⁻¹ | 1790 ± 450 µM | 8.17e-05 ± 2.1e-05 s⁻¹
34 | U46C U55C | 0.00703 ± 0.0025 s⁻¹ | 0.000217 ± 4.2e-05 s⁻¹ | 0.00291 ± 0.00042 s⁻¹ | 0.00515 ± 0.00071 s⁻¹ | 0.00108 ± 0.00013 s⁻¹ | 3630 ± 1700 µM | 0.000129 ± 1.9e-05 s⁻¹
35 | A48G A53G | 0.00014 ± 3.1e-05 s⁻¹ |  | 8.53e-05 ± 1.3e-05 s⁻¹ | 0.000105 ± 1.2e-05 s⁻¹ |  |  | 
36 | A48G A53C | 5.9e-05 ± 9.7e-06 s⁻¹ |  | 7.97e-05 ± 1.7e-05 s⁻¹ | 5.4e-05 ± 7.2e-06 s⁻¹ |  |  | 
